These are literature values, as cited in paper PMC4459106.

pKd: −log10 of the molar value.

In the data set the target is KIM15-31 (HePTP) 15-31 (Homo sapiens) (UniProt P35236).

The term pKd denotes the Kd on a negative log10 scale, so that one unit is a factor of ten. For the substance ppERK2 (from UniProt P63086), the pKd is 5.89.
